Measurements: IntAct's records for PubMed 16775625

B1: Cyclin-dependent kinase 14 (Homo sapiens), O94921 (parent)
chain: MCDLIEPQPAEKIGKMKKLRRTLSESFSRIALKKDDTTFDEICVTKMSTRNCQGMDSVIKPLDTIPEDKKVRVQRTQSTFDPFEKPANQVKRVHSENNACINFKTSSTGKESPKVRRHSSPSSPTSPKFGKADSYEKLEKLGEGSYATVYKGKSKVNGKLVALKVIRLQEEEGTPFTAIREASLLKGLKHANIVLLHDIIHTKETLTLVFEYVHTDLCQYMDKHPGGLHPDNVKLFLFQLLRGLSYIHQRYILHRDLKPQNLLISDTGELKLADFGLARAKSVPSHTYSNEVVTLWYRPPDVLLGSTEYSTCLDMWGVGCIFVEMIQGVAAFPGMKDIQDQLERIFLVLGTPNEDTWPGVHSLPHFKPERFTLYSSKNLRQAWNKLSYVNHAEDLASKLLQCSPKNRLSAQAALSHEYFSDLPPRLWELTDMSSIFTVPNVRLQPEAGESMRAFGKNNSYGKSLSNSKH
B2: Cyclin-dependent kinase 14 (Homo sapiens), O94921 (parent)
chain: B1 chain
partner: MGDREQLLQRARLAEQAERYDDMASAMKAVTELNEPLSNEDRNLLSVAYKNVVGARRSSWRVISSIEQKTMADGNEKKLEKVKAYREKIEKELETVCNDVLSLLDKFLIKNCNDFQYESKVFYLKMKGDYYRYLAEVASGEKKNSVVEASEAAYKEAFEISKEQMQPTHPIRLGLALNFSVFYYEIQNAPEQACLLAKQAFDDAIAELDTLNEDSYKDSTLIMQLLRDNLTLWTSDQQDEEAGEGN
B3: Cyclin-dependent kinase 14 (Homo sapiens), O94921 (parent)
chain: B1 chain
partner: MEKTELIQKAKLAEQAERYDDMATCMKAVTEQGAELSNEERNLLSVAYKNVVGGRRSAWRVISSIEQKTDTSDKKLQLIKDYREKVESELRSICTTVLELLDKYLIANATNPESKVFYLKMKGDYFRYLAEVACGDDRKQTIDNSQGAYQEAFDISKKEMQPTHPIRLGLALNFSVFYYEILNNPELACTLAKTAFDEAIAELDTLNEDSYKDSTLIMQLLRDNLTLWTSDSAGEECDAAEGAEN

Variants of: B1
Conditions: with 1433b_human YWHAB

Row | Variant | effect of a mutation on the interaction
1 | S119A | decreasing interaction

Variants of: B1
Conditions: with 1433e_human YWHAE

Row | Variant | effect of a mutation on the interaction
2 | S119A | decreasing interaction

Variants of: B2
Conditions: with 1433f_human YWHAH

Row | Variant | effect of a mutation on the interaction
3 | S119A | decreasing interaction

Variants of: B3
Conditions: with 1433t_human YWHAQ

Row | Variant | effect of a mutation on the interaction
4 | S119A | decreasing interaction
